Assay results: article PMC2789240, “Comparative structural, kinetic and inhibitor studies of Trypanosoma brucei trypanothione reductase with T. cruzi^” (Molecular and Biochemical Parasitology, 2010)

B1: TcTryR (recombinant T. cruzi trypanothione reductase) (Trypanosoma cruzi) (protein)
chain: MMSKIFDLVVIGAGSGGLEAAWNAATLYKKRVAVIDVQMVHGPPFFSALGGTCVNVGCVPKKLMVTGAQYMEHLRESAGFGWEFDRTTLRAEWKKLIAVKDEAVLNINKSYEEMFRDTEGLEFFLGWGSLESKNVVNVRESADPASAVKERLETENILLASGSWPHMPNIPGIEHCISSNEAFYLPEPPRRVLTVGGGFISVEFAGIFNAYKPKDGQVTLCYRGEMILRGFDHTLREELTKQLTANGIQILTKENPAKVELNADGSKSVTFESGKKMDFDLVMMAIGRSPRTKDLQLQNAGVMIKNGGVQVDEYSRTNVSNIYAIGDVTNRVMLTPVAINEAAALVDTVFGTNPRKTDHTRVASAVFSIPPIGTCGLIEEVASKRYEVVAVYLSSFTPLMHNISGSKYKTFVAKIITNHSDGTVLGVHLLGDNAPEIIQGVGICLKLNAKISDFYNTIGVHPTSAEELCSMRTPSYYYVKGEKMEKPSEASL
notes: made in house
B2: TcTryR (Trypanosoma cruzi) (protein)
chain: MMSKIFDLVVIGAGSGGLEAAWNAATLYKKRVAVIDVQMVHGPPFFSALGGTCVNVGCVPKKLMVTGAQYMEHLRESAGFGWEFDRTTLRAEWKKLIAVKDEAVLNINKSYEEMFRDTEGLEFFLGWGSLESKNVVNVRESADPASAVKERLETENILLASGSWPHMPNIPGIEHCISSNEAFYLPEPPRRVLTVGGGFISVEFAGIFNAYKPKDGQVTLCYRGEMILRGFDHTLREELTKQLTANGIQILTKENPAKVELNADGSKSVTFESGKKMDFDLVMMAIGRSPRTKDLQLQNAGVMIKNGGVQVDEYSRTNVSNIYAIGDVTNRVMLTPVAINEAAALVDTVFGTNPRKTDHTRVASAVFSIPPIGTCGLIEEVASKRYEVVAVYLSSFTPLMHNISGSKYKTFVAKIITNHSDGTVLGVHLLGDNAPEIIQGVGICLKLNAKISDFYNTIGVHPTSAEELCSMRTPSYYYVKGEKMEKPSEASL
notes: made in house

Legend:
[1] = substrate: N[C@@H](CCC(=O)N[C@H]1CSSC[C@H](NC(=O)CC[C@H](N)C(=O)O)C(=O)NCC(=O)NCCCNCCCCNC(=O)CNC1=O)C(=O)O; assay: 412 nm DTNB-coupled trypanothione reductase assay (IC50, Km); type: biochemical, Trypanosoma cruzi; details: other: saturating NADPH; pH 7.4; 25.0 °C
Procedure: Assay plates were prepared using a Precision2000 liquid handler (Bio-Tek) with a final DMSO concentration of 1% in all wells. Plates contained a 10-point serial dilution (2-fold or 3-fold dilutions) across columns 2–11 with a top concentration of 100 μM or 200 μM. […] Column 1 contained full signal controls (no inhibitor) and column 12 contained background controls (no enzyme).

[2] = substrate: N[C@@H](CCC(=O)N[C@H]1CSSC[C@H](NC(=O)CC[C@H](N)C(=O)O)C(=O)NCC(=O)NCCCNCCCCNC(=O)CNC1=O)C(=O)O; assay: 340 nm NADPH oxidation trypanothione reductase assay; type: biochemical, Trypanosoma cruzi; details: other: 340 nm assay; pH 7.4; 25.0 °C
Procedure: TryR was assayed spectrophotometrically either by monitoring the trypanothione-dependent oxidation of NADPH at 340 nm, or by the reduction of 5,5′-dithio-bis(2-nitrobenzoic acid) (DTNB) at 412 nm (see Fig. 1B). Assays at 340 nm were carried out at 25 °C in 500 μl volume acrylic cuvettes and changes in absorbance monitored with a UV-1601 PC spectrophotometer (Shimadzu). The standard assay mixture contained 40 mM HEPES pH 7.4, 1 mM EDTA, ∼10 mU ml^−1 TryR, 150 μM NADPH and 100 μM T(S)2. Assays at 412 nm were carried out in 96-well plates (Polysorp, Nunc) at room temperature in a volume of 200 μl. Changes in absorbance were monitored in a SpectraMax 340pc plate reader (Molecular Devices). The standard assay mixture contained 40 mM HEPES pH 7.4, 1 mM EDTA, ∼10 mU ml^−1 TryR, 150 μM NADPH, 6 μM T(S)2 and 50 μM DTNB. All assays were initiated by addition of the T(S)2. Data was collected using SoftMax Pro (molecular devices) and UVProbe 2 (Shimadzu) software, processed and analysed using Excel 2002 (Microsoft) and GraFit 5 (Erithacus Software). NADPH stock solutions were measured spectrophotometrically at 340 nm using an absorption coefficient of 6.22 × 10^3 M^−1 cm^−1[16]. The concentration of T(S)2 stock solutions were determined by measuring the oxidation of NADPH in the presence of excess TryR.
Km values with respect to T(S)2 were determined for TbTryR in both assays using purified recombinant T. cruzi TryR for comparison. Determinations for each enzyme were carried out in three independent experiments and a weighted mean calculated.

Protein | Km [1] [µM] | Km [2] [µM] | kcat [2] [s⁻¹] | kcat/Km [2] [M⁻¹ s⁻¹]
B1 | 10.4 ± 0.3 | – | – | –
B2 | – | 29.6 ± 2.8 | 77 ± 8 | 2.6e+06
